According to publication doi:10.1101/2023.01.16.524289, “HuR modulation with tanshinone mimics impairs LPS response in murine macrophages”:

Biological target: rM1M2 HuR (RRM1-RRM2) (UniProt Q15717 18-186)
Assay: HTRF; 20 nM protein, 50 nM probe; TM7nox inhibits with IC50 0.7956 uM (small-molecule IC50, not an affinity); REMSA: 30 min incubation, 4% native gel, buffer not given; HTRF: Cisbio protocol; pull-down: lysis in PEB (20 mM Tris-HCl pH 7.5, 100 mM KCl, 5 mM MgCl2, 0.5% NP-40), binding in TENT (20 mM Tris-HCl pH 8.0, 2 mM EDTA, 500 mM NaCl, 1% Triton X-100), 4 C
Settings: protein: recombinant; tags: His-tag; label: 5'-biotin; single strand

Chain of rM1M2 HuR (RRM1-RRM2) (Q15717 18-186): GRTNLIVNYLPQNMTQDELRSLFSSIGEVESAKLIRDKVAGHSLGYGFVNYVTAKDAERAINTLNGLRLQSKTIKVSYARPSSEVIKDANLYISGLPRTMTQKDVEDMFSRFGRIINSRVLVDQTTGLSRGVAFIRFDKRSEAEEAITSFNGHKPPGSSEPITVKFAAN

B1: Bi-TNF ARE probe (26 nt) (ssRNA)
RNA: AUUAUUUAUUAUUUAUUUAUUAUUUA
binding result: binds
